# The supplement of paper PMC10266784
# B1: library; numbered along this chain (parent)
# chain: MAAAAAAAAEQQSSNGPVKKSMREKAVERRSVNKEHNSNFKAGYIPIDEDRLHKTGLRGRKGNLAICVIILLFILAVINLIITLVIWAVIRIGPNGCDSMEFHESGLLRFKQVSDMGVIHPLYKSTVGGRRNENLVITGNNQPIVFQQGTTKLSVENNKTSITSDIGMQFFDPRTQNILFSTDYETHEFHLPSGVKSLNVQKASTERITSNATSDLNIKVDGRAIVRGNEGVFIMGKTIEFHMGGNMELKAENSIILNGSVMVSTTRLPSSSSGDQLGSGDWVRYKLCMCADGTLFKVQVTSQNMGCQISDNPCGNTH
# Variants of: B1
# Assay: SGCB cell-surface expression functional score (HA stain, bin4 vs bin1, normalised to synonymous) (log10 ratio); higher = more cell-surface SGCB (functional)
# Outline: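 Human beta-sarcoglycan, tagged with HA and fused to YFP, was built into codon-saturation libraries and delivered by lentivirus at MOI <0.1 into HEK293 cells that stably express alpha-, gamma- and delta-sarcoglycan. After 72 hours, YFP-positive cells were sorted and grown for 5–7 days, then stained on ice with Alexa Fluor 647 anti-HA, fixed, sorted into four 5% intensity bins and amplicon-sequenced. Each variant's functional score is the log ratio of its frequency in the highest bin to that in the lowest bin, taken as the median across codons and transductions. Transductions were done in duplicate, and synonymous variants were scaled per section to mean 0, SD 0.5.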
row,Variant,SGCB cell-surface expression functional score (log10)
1,MAAAAAAAAEQQSSNGPVKKSMREKAVERRSVNKEHNSNFKAGYIPIDEDRLHKTGLRGRKGNLAICVIILLFILAVINLIITLVIWAVIRIGPNGCDSMEFHESGLLRFKQVSDMGVIHPLYKSTVGGRRNENLVITGNNMPIVFQQGTTKLSVENNKTSITSDIGMQFFDPRTQNILFSTDYETHEFHLPSGVKSLNVQKASTERITSNATSDLNIKVDGRAIVRGNEGVFIMGKTIEFHMGGNMELKAENSIILNGSVMVSTTRLPSSSSGDQLGSGDWVRYKLCMCADGTLFKVQVTSQNMGCQISDNPCGNTH [Q142M],0.97
2,MAAAAAAAAEQQSSNGPVKKSMREKAVERRSVNKEHNSNFKAGYIPIDEDRLHKTGLRGRKGNLAICVIILLFILAVINLIITLVIWAVIRIGPNGCDSMEFHESGLLRFKQVSDMGVIHPLYKSTVGGRRNENLVITGNNKPIVFQQGTTKLSVENNKTSITSDIGMQFFDPRTQNILFSTDYETHEFHLPSGVKSLNVQKASTERITSNATSDLNIKVDGRAIVRGNEGVFIMGKTIEFHMGGNMELKAENSIILNGSVMVSTTRLPSSSSGDQLGSGDWVRYKLCMCADGTLFKVQVTSQNMGCQISDNPCGNTH [Q142K],-0.31
3,MAAAAAAAAEQQSSNGPVKKSMREKAVERRSVNKEHNSNFKAGYIPIDEDRLHKTGLRGRKGNLAICVIILLFILAVINLIITLVIWAVIRIGPNGCDSMEFHESGLLRFKQVSDMGVIHPLYKSTVGGRRNENLVITGNNYPIVFQQGTTKLSVENNKTSITSDIGMQFFDPRTQNILFSTDYETHEFHLPSGVKSLNVQKASTERITSNATSDLNIKVDGRAIVRGNEGVFIMGKTIEFHMGGNMELKAENSIILNGSVMVSTTRLPSSSSGDQLGSGDWVRYKLCMCADGTLFKVQVTSQNMGCQISDNPCGNTH [Q142Y],-0.3
4,MAAAAAAAAEQQSSNGPVKKSMREKAVERRSVNKEHNSNFKAGYIPIDEDRLHKTGLRGRKGNLAICVIILLFILAVINLIITLVIWAVIRIGPNGCDSMEFHESGLLRFKQVSDMGVIHPLYKSTVGGRRNENLVITGNNTPIVFQQGTTKLSVENNKTSITSDIGMQFFDPRTQNILFSTDYETHEFHLPSGVKSLNVQKASTERITSNATSDLNIKVDGRAIVRGNEGVFIMGKTIEFHMGGNMELKAENSIILNGSVMVSTTRLPSSSSGDQLGSGDWVRYKLCMCADGTLFKVQVTSQNMGCQISDNPCGNTH [Q142T],-0.17
5,MAAAAAAAAEQQSSNGPVKKSMREKAVERRSVNKEHNSNFKAGYIPIDEDRLHKTGLRGRKGNLAICVIILLFILAVINLIITLVIWAVIRIGPNGCDSMEFHESGLLRFKQVSDMGVIHPLYKSTVGGRRNENLVITGNNWPIVFQQGTTKLSVENNKTSITSDIGMQFFDPRTQNILFSTDYETHEFHLPSGVKSLNVQKASTERITSNATSDLNIKVDGRAIVRGNEGVFIMGKTIEFHMGGNMELKAENSIILNGSVMVSTTRLPSSSSGDQLGSGDWVRYKLCMCADGTLFKVQVTSQNMGCQISDNPCGNTH [Q142W],0.21
6,MAAAAAAAAEQQSSNGPVKKSMREKAVERRSVNKEHNSNFKAGYIPIDEDRLHKTGLRGRKGNLAICVIILLFILAVINLIITLVIWAVIRIGPNGCDSMEFHESGLLRFKQVSDMGVIHPLYKSTVGGRRNENLVITGNNLPIVFQQGTTKLSVENNKTSITSDIGMQFFDPRTQNILFSTDYETHEFHLPSGVKSLNVQKASTERITSNATSDLNIKVDGRAIVRGNEGVFIMGKTIEFHMGGNMELKAENSIILNGSVMVSTTRLPSSSSGDQLGSGDWVRYKLCMCADGTLFKVQVTSQNMGCQISDNPCGNTH [Q142L],-0.54
7,MAAAAAAAAEQQSSNGPVKKSMREKAVERRSVNKEHNSNFKAGYIPIDEDRLHKTGLRGRKGNLAICVIILLFILAVINLIITLVIWAVIRIGPNGCDSMEFHESGLLRFKQVSDMGVIHPLYKSTVGGRRNENLVITGNNSPIVFQQGTTKLSVENNKTSITSDIGMQFFDPRTQNILFSTDYETHEFHLPSGVKSLNVQKASTERITSNATSDLNIKVDGRAIVRGNEGVFIMGKTIEFHMGGNMELKAENSIILNGSVMVSTTRLPSSSSGDQLGSGDWVRYKLCMCADGTLFKVQVTSQNMGCQISDNPCGNTH [Q142S],0.05
8,MAAAAAAAAEQQSSNGPVKKSMREKAVERRSVNKEHNSNFKAGYIPIDEDRLHKTGLRGRKGNLAICVIILLFILAVINLIITLVIWAVIRIGPNGCDSMEFHESGLLRFKQVSDMGVIHPLYKSTVGGRRNENLVITGNNRPIVFQQGTTKLSVENNKTSITSDIGMQFFDPRTQNILFSTDYETHEFHLPSGVKSLNVQKASTERITSNATSDLNIKVDGRAIVRGNEGVFIMGKTIEFHMGGNMELKAENSIILNGSVMVSTTRLPSSSSGDQLGSGDWVRYKLCMCADGTLFKVQVTSQNMGCQISDNPCGNTH [Q142R],-0.5
9,MAAAAAAAAEQQSSNGPVKKSMREKAVERRSVNKEHNSNFKAGYIPIDEDRLHKTGLRGRKGNLAICVIILLFILAVINLIITLVIWAVIRIGPNGCDSMEFHESGLLRFKQVSDMGVIHPLYKSTVGGRRNENLVITGNNPPIVFQQGTTKLSVENNKTSITSDIGMQFFDPRTQNILFSTDYETHEFHLPSGVKSLNVQKASTERITSNATSDLNIKVDGRAIVRGNEGVFIMGKTIEFHMGGNMELKAENSIILNGSVMVSTTRLPSSSSGDQLGSGDWVRYKLCMCADGTLFKVQVTSQNMGCQISDNPCGNTH [Q142P],-1.08
10,MAAAAAAAAEQQSSNGPVKKSMREKAVERRSVNKEHNSNFKAGYIPIDEDRLHKTGLRGRKGNLAICVIILLFILAVINLIITLVIWAVIRIGPNGCDSMEFHESGLLRFKQVSDMGVIHPLYKSTVGGRRNENLVITGNNNPIVFQQGTTKLSVENNKTSITSDIGMQFFDPRTQNILFSTDYETHEFHLPSGVKSLNVQKASTERITSNATSDLNIKVDGRAIVRGNEGVFIMGKTIEFHMGGNMELKAENSIILNGSVMVSTTRLPSSSSGDQLGSGDWVRYKLCMCADGTLFKVQVTSQNMGCQISDNPCGNTH [Q142N],-0.43
11,MAAAAAAAAEQQSSNGPVKKSMREKAVERRSVNKEHNSNFKAGYIPIDEDRLHKTGLRGRKGNLAICVIILLFILAVINLIITLVIWAVIRIGPNGCDSMEFHESGLLRFKQVSDMGVIHPLYKSTVGGRRNENLVITGNNIPIVFQQGTTKLSVENNKTSITSDIGMQFFDPRTQNILFSTDYETHEFHLPSGVKSLNVQKASTERITSNATSDLNIKVDGRAIVRGNEGVFIMGKTIEFHMGGNMELKAENSIILNGSVMVSTTRLPSSSSGDQLGSGDWVRYKLCMCADGTLFKVQVTSQNMGCQISDNPCGNTH [Q142I],-0.41
12,MAAAAAAAAEQQSSNGPVKKSMREKAVERRSVNKEHNSNFKAGYIPIDEDRLHKTGLRGRKGNLAICVIILLFILAVINLIITLVIWAVIRIGPNGCDSMEFHESGLLRFKQVSDMGVIHPLYKSTVGGRRNENLVITGNNVPIVFQQGTTKLSVENNKTSITSDIGMQFFDPRTQNILFSTDYETHEFHLPSGVKSLNVQKASTERITSNATSDLNIKVDGRAIVRGNEGVFIMGKTIEFHMGGNMELKAENSIILNGSVMVSTTRLPSSSSGDQLGSGDWVRYKLCMCADGTLFKVQVTSQNMGCQISDNPCGNTH [Q142V],-0.05
13,MAAAAAAAAEQQSSNGPVKKSMREKAVERRSVNKEHNSNFKAGYIPIDEDRLHKTGLRGRKGNLAICVIILLFILAVINLIITLVIWAVIRIGPNGCDSMEFHESGLLRFKQVSDMGVIHPLYKSTVGGRRNENLVITGNNQAIVFQQGTTKLSVENNKTSITSDIGMQFFDPRTQNILFSTDYETHEFHLPSGVKSLNVQKASTERITSNATSDLNIKVDGRAIVRGNEGVFIMGKTIEFHMGGNMELKAENSIILNGSVMVSTTRLPSSSSGDQLGSGDWVRYKLCMCADGTLFKVQVTSQNMGCQISDNPCGNTH [P143A],-0.21
14,MAAAAAAAAEQQSSNGPVKKSMREKAVERRSVNKEHNSNFKAGYIPIDEDRLHKTGLRGRKGNLAICVIILLFILAVINLIITLVIWAVIRIGPNGCDSMEFHESGLLRFKQVSDMGVIHPLYKSTVGGRRNENLVITGNNQEIVFQQGTTKLSVENNKTSITSDIGMQFFDPRTQNILFSTDYETHEFHLPSGVKSLNVQKASTERITSNATSDLNIKVDGRAIVRGNEGVFIMGKTIEFHMGGNMELKAENSIILNGSVMVSTTRLPSSSSGDQLGSGDWVRYKLCMCADGTLFKVQVTSQNMGCQISDNPCGNTH [P143E],-0.73
15,MAAAAAAAAEQQSSNGPVKKSMREKAVERRSVNKEHNSNFKAGYIPIDEDRLHKTGLRGRKGNLAICVIILLFILAVINLIITLVIWAVIRIGPNGCDSMEFHESGLLRFKQVSDMGVIHPLYKSTVGGRRNENLVITGNNQGIVFQQGTTKLSVENNKTSITSDIGMQFFDPRTQNILFSTDYETHEFHLPSGVKSLNVQKASTERITSNATSDLNIKVDGRAIVRGNEGVFIMGKTIEFHMGGNMELKAENSIILNGSVMVSTTRLPSSSSGDQLGSGDWVRYKLCMCADGTLFKVQVTSQNMGCQISDNPCGNTH [P143G],-0.72
16,MAAAAAAAAEQQSSNGPVKKSMREKAVERRSVNKEHNSNFKAGYIPIDEDRLHKTGLRGRKGNLAICVIILLFILAVINLIITLVIWAVIRIGPNGCDSMEFHESGLLRFKQVSDMGVIHPLYKSTVGGRRNENLVITGNNQHIVFQQGTTKLSVENNKTSITSDIGMQFFDPRTQNILFSTDYETHEFHLPSGVKSLNVQKASTERITSNATSDLNIKVDGRAIVRGNEGVFIMGKTIEFHMGGNMELKAENSIILNGSVMVSTTRLPSSSSGDQLGSGDWVRYKLCMCADGTLFKVQVTSQNMGCQISDNPCGNTH [P143H],-0.41
17,MAAAAAAAAEQQSSNGPVKKSMREKAVERRSVNKEHNSNFKAGYIPIDEDRLHKTGLRGRKGNLAICVIILLFILAVINLIITLVIWAVIRIGPNGCDSMEFHESGLLRFKQVSDMGVIHPLYKSTVGGRRNENLVITGNNQDIVFQQGTTKLSVENNKTSITSDIGMQFFDPRTQNILFSTDYETHEFHLPSGVKSLNVQKASTERITSNATSDLNIKVDGRAIVRGNEGVFIMGKTIEFHMGGNMELKAENSIILNGSVMVSTTRLPSSSSGDQLGSGDWVRYKLCMCADGTLFKVQVTSQNMGCQISDNPCGNTH [P143D],-0.9
18,MAAAAAAAAEQQSSNGPVKKSMREKAVERRSVNKEHNSNFKAGYIPIDEDRLHKTGLRGRKGNLAICVIILLFILAVINLIITLVIWAVIRIGPNGCDSMEFHESGLLRFKQVSDMGVIHPLYKSTVGGRRNENLVITGNNQCIVFQQGTTKLSVENNKTSITSDIGMQFFDPRTQNILFSTDYETHEFHLPSGVKSLNVQKASTERITSNATSDLNIKVDGRAIVRGNEGVFIMGKTIEFHMGGNMELKAENSIILNGSVMVSTTRLPSSSSGDQLGSGDWVRYKLCMCADGTLFKVQVTSQNMGCQISDNPCGNTH [P143C],0.07
19,MAAAAAAAAEQQSSNGPVKKSMREKAVERRSVNKEHNSNFKAGYIPIDEDRLHKTGLRGRKGNLAICVIILLFILAVINLIITLVIWAVIRIGPNGCDSMEFHESGLLRFKQVSDMGVIHPLYKSTVGGRRNENLVITGNNQFIVFQQGTTKLSVENNKTSITSDIGMQFFDPRTQNILFSTDYETHEFHLPSGVKSLNVQKASTERITSNATSDLNIKVDGRAIVRGNEGVFIMGKTIEFHMGGNMELKAENSIILNGSVMVSTTRLPSSSSGDQLGSGDWVRYKLCMCADGTLFKVQVTSQNMGCQISDNPCGNTH [P143F],-0.1
